Data from publication PMC7062661, “Expression and purification of the 5′-nucleotidase YitU from Bacillus species: its enzymatic properties and possible applications in biotechnology” (Applied Microbiology and Biotechnology, 2020).

Legend:
Assay in all cases: purified protein
purified protein [1] = substrate: Cc1cc2nc3c(=O)[nH]c(=O)nc-3n(C[C@H](O)[C@H](O)[C@H](O)COP(=O)(O)O)c2cc1C; details: 50 mM imidazole pH 7.0, 5 mM MgCl2, 30 °C
purified protein [2] = substrate: NC(=O)c1ncn([C@@H]2O[C@H](COP(=O)(O)O)[C@@H](O)[C@H]2O)c1N; details: 50 mM imidazole pH 7.0, 5 mM MgCl2, 30 °C, Hill plot fit (sigmoidal kinetics)
purified protein [3] = substrate: Nc1ccn([C@@H]2O[C@H](COP(=O)(O)O)[C@@H](O)[C@H]2O)c(=O)n1; details: 50 mM imidazole pH 7.0, 5 mM MgCl2, 30 °C
purified protein [4] = substrate: Nc1nc2c(ncn2[C@@H]2O[C@H](COP(=O)(O)O)[C@@H](O)[C@H]2O)c(=O)[nH]1; details: 50 mM imidazole pH 7.0, 5 mM MgCl2, 30 °C
purified protein [5] = substrate: Nc1nc2c(ncn2[C@H]2C[C@H](O)[C@@H](COP(=O)(O)O)O2)c(=O)[nH]1; details: 50 mM imidazole pH 7.0, 5 mM MgCl2, 30 °C
purified protein [6] = substrate: Nc1ncnc2c1ncn2[C@@H]1O[C@H](COP(=O)(O)O)[C@@H](O)[C@H]1O; details: 50 mM imidazole pH 7.0, 5 mM MgCl2, 30 °C
purified protein [7] = substrate: Nc1ncnc2c1ncn2[C@H]1C[C@H](O)[C@@H](COP(=O)(O)O)O1; details: 50 mM imidazole pH 7.0, 5 mM MgCl2, 30 °C
purified protein [8] = substrate: O=c1[nH]c(=O)c2ncn([C@@H]3O[C@H](COP(=O)(O)O)[C@@H](O)[C@H]3O)c2[nH]1; details: 50 mM imidazole pH 7.0, 5 mM MgCl2, 30 °C

B1: Ht-YitUBs (Bacillus subtilis subsp. subtilis str. 168) (protein)
chain: METKPYLIALDLDGTLLKDDKTISENTLHTIQRLKDDGHYVCISTGRPYRSSSMYYQQMELTTPIVNFNGAFVHHPQDDSWGRYHTSLPLDVVKQLVDISESYNVHNVLAEVIDDVYFHYHDEHLIDAFNMNTTNVTVGDLRENLGEDVTSVLIHAKEEDVPAIRSYLSDVHAEVIDHRRWAAPWHVIEIIKSGMNKAVGLQKISDYYGVPRERIIAFGDEDNDLEMLEFAGCGVAMGNGIDAVKQIANRTTATNEEDGVARFLKEYFSL
Km (purified protein [1]): 0.096 ± 0.015 mM | Vmax (purified protein [1]): 43.2 µmol/min/mg | kcat (purified protein [1]): 23 s⁻¹ | kcat/Km (purified protein [1]): 239000 M⁻¹ s⁻¹ | K0.5 (purified protein [2]): 10.19 ± 1.50 mM | Vmax (purified protein [2]): 21.2 µmol/min/mg | kcat (purified protein [2]): 11.3 s⁻¹ | kcat/Km (purified protein [2]): 1110 M⁻¹ s⁻¹ | Km (purified protein [3]): 17.45 ± 1.82 mM | Vmax (purified protein [3]): 73.7 µmol/min/mg | kcat (purified protein [3]): 39.2 s⁻¹ | kcat/Km (purified protein [3]): 2250 M⁻¹ s⁻¹ | Km (purified protein [4]): 7.00 ± 0.29 mM | Vmax (purified protein [4]): 40 µmol/min/mg | kcat (purified protein [4]): 21.3 s⁻¹ | kcat/Km (purified protein [4]): 3040 M⁻¹ s⁻¹ | Km (purified protein [5]): 5.61 ± 0.79 mM | Vmax (purified protein [5]): 25.9 µmol/min/mg | kcat (purified protein [5]): 13.8 s⁻¹ | kcat/Km (purified protein [5]): 2460 M⁻¹ s⁻¹ | Km (purified protein [6]): 14.32 ± 1.01 mM | Vmax (purified protein [6]): 52.9 µmol/min/mg | kcat (purified protein [6]): 28.2 s⁻¹ | kcat/Km (purified protein [6]): 1970 M⁻¹ s⁻¹ | Km (purified protein [7]): 8.24 ± 0.42 mM | Vmax (purified protein [7]): 49.4 µmol/min/mg | kcat (purified protein [7]): 26.2 s⁻¹ | kcat/Km (purified protein [7]): 3190 M⁻¹ s⁻¹ | Km (purified protein [8]): 21.74 ± 2.93 mM | Vmax (purified protein [8]): 70.5 µmol/min/mg | kcat (purified protein [8]): 37.5 s⁻¹ | kcat/Km (purified protein [8]): 1720 M⁻¹ s⁻¹
